Assay results as given in patent EP1454989A1.

What was measured:
[1] = biological target: HCV E2 glycoprotein of genotype 1a (hepatitis C virus genotype 1a) (UniProt P27958); test: cell-based or functional assay
human CD81 (human) = human CD81 (human) (UniProt P60033); test: cell-based or functional assay

How did the inhibition of infectivity of HCVpp on Huh-7 cells (polypeptide at 4, 8, 16 µg/ml pre-incubated with the pseudo-particles) [1] turn out when “recombinant GST-fusion polypeptide encompassing the large extra-cellular loop (LEL) of human CD81 (from UniProt P60033 113-201)” was run?
Its inhibition of infectivity of HCVpp on Huh-7 cells (polypeptide at 4, 8, 16 µg/ml pre-incubated with the pseudo-particles) is 38 to 54%.

Which inhibition of infection by HCVpp of genotypes 1a and 1b (target cells pre-incubated with antibody at 30 µg/ml) (human CD81 (human)) does the source give for JS-81 anti-CD81 monoclonal antibody here?
The inhibition of infection by HCVpp of genotypes 1a and 1b (target cells pre-incubated with antibody at 30 µg/ml) was greater than 90%.
